Data on 1 molecule can be found in patent publication US20160346375A1 (MCMASTER UNIVERSITY, published 2016).

This assay deals with T1, Cpn0803 (Chlamydia pneumoniae, UniProt Q9Z7A3 1-184).
T1 construct: Prey in an E. coli lysate
T1 sequence: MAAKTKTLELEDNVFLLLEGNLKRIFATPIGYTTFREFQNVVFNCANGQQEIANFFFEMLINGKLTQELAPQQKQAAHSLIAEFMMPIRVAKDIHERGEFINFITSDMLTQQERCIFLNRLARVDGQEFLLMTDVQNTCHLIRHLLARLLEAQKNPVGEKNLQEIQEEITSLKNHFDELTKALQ
As to the kind of experiment: GST pull-down from E. coli lysate, high salt wash.

B1: GST-CopB1-255 (other)
chain: MSISSSSGPDNQKNIMSQVLTSTPQGVPQQDKLSGNETKQIQQTRQGKNTEMESDATIAGASGKDKTSSTTKTETAPQQGVAAGKESSESQKAGADTGVSGAAATTASNTATKIAMQTSIEEASKSMESTLESLQSLSAAQMKEVEAVVVAALSGKSSGSAKLETPELPKPGVTPRSEVIEIGLALAKAIQTLGEATKSALSNYASTQAQADQTNKLGLEKQAIKIDKEREEYQEMKAAEQKSKDLEGTMDTVNT
notes: Bait on glutathione-agarose beads; also called recombinant GST-CopB1-255; GST-CopB fragment; not shown: glutathione-S-transferase (GST) fusion tag
For B1, the binding result is “no binding”.
